The source of these data is patent US20140308285A1 (Amgen, published 2014).

Sequences and labels used below:
T1: cynomolgus monkey CD3 (CD3 epsilon chain) on cynomolgus monkey T cells (cynomolgus monkey (Macaca fascicularis), UniProt Q95LI5 22-198)
T1 chain: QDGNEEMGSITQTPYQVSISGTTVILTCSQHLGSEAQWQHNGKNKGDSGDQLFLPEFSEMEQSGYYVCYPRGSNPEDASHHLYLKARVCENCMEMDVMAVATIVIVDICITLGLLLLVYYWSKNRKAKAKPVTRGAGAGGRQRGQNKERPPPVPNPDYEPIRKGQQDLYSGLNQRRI

B1: H71365.2 (bispecific antibody)
chain 1: QVQLVESGGGVVQPGRSLRLSCAASGFTFSSYGMHWVRQAPGKGLEWVAVISYPGNTKYYADSVKGRFTISRDNSKNTLYLQMNSLRAEDTAVYFCARDQKEWRLIFDYWGQGTLVTVSSGGGGSGGGGSQVQLQESGPGLVKPSQTLSLTCTVSGGSINNNNYYWTWIRQHPGKGLEWIGYIYYSGSTFYNPSLKSRVTISVDTSKTQFSLKLSSVTAADTAVYYCAREDTMTGLDVWGQGTTVTVSSASTKGPSVFPLAPCSRSTSESTAALGCLVKDYFPEPVTVSWNSGALTSGVHTFPAVLQSSGLYSLSSVVTVPSSNFGTQTYTCNVDHKPSNTKVDKTVGGGGSAAAVPRDLEVVAATPTSLLISWDAPHHGVAYYRITYGETGGNSPVQEFTVPGSKSTATISGLKPGVDYTINVYAVLAYPRGYPLSKPISINYRTDYKDDDDKGSSHHHHHH
chain 2: DIQMTQSPSSVSASVGDRVTITCRASQGISSWLAWYQQKPGKAPKLLIYAASSLQSGVPSRFSGSGSGAAFTLTISSLQPEDFATYFCQQANSFPLTFAGGTKVDIKRGGGGSGGGGSDIQMTQSPSSLSASVGDRVTITCRASQSINNYLNWYQQKPGKAPTLLIYAASSLQSGVPSRFSGSRSGTDFTLTISSLQPEDFAAYFCQQTYSNPTFGQGTKVEVKRTVAAPSVFIFPPSDEQLKSGTASVVCLLNNFYPREAKVQWKVDNALQSGNSQESVTEQDSKDSTYSLSSTLTLSKADYEKHKVYACEVTHQGLSSPVTKSFNRGEC
notes: also called H71364.2
B2: H69070.4 (bispecific antibody)
chain 1: QVQLVESGGGVVQPGRSLRLSCAASGFTFSSYGMHWVRQAPGKGLEWVAVISYPGNTKYYADSVKGRFTISRDNSKNTLYLQMNSLRAEDTAVYFCARDQKEWRLIFDYWGQGTLVTVSSASTKGPQVQLQESGPGLVKPSETLSLTCTVSGGSIISHYWSWIRQPPGKGLEWIGYIYYSGSTNYNPSLKSRVTISVDTSKNQFSLKLTSVTAADTAVYYCARDGWSAFDYWGQGTLVTVSSASTKGPSVFPLAPCSRSTSESTAALGCLVKDYFPEPVTVSWNSGALTSGVHTFPAVLQSSGLYSLSSVVTVPSSNFGTQTYTCNVDHKPSNTKVDKTVGGGGSAAAVPRDLEVVAATPTSLLISWDAPHHGVAYYRITYGETGGNSPVQEFTVPGSKSTATISGLKPGVDYTINVYAVLAYPRGYPLSKPISINYRTDYKDDDDKGSSHHHHHH
chain 2: DIQMTQSPSSVSASVGDRVTITCRASQGISSWLAWYQQKPGKAPKLLIYAASSLQSGVPSRFSGSGSGAAFTLTISSLQPEDFATYFCQQANSFPLTFAGGTKVDIKRTVAAPDIQMTQSPSSLSASVGDRVTITCRASQGIRNALGWYQQKPGKAPKRLIYAASSLQSGVPSRFSGSGSGTEFTLTISSLQPEDFATYYCLQHNSYPRTFGQGTKVEIRRTVAAPSVFIFPPSDEQLKSGTASVVCLLNNFYPREAKVQWKVDNALQSGNSQESVTEQDSKDSTYSLSSTLTLSKADYEKHKVYACEVTHQGLSSPVTKSFNRGEC
B3: H69072.4 (bispecific antibody)
chain 1: DIQMTQSPSSVSASVGDRVTITCRASQGISSWLAWYQQKPGKAPKLLIYAASSLQSGVPSRFSGSGSGAAFTLTISSLQPEDFATYFCQQANSFPLTFAGGTKVDIKRGGGGSGGGGSQVQLQESGPGLVKPSQTLSLTCTVSGGSINNNNYYWTWIRQHPGKGLEWIGYIYYSGSTFYNPSLKSRVTISVDTSKTQFSLKLSSVTAADTAVYYCAREDTMTGLDVWGQGTTVTVSSASTKGPSVFPLAPCSRSTSESTAALGCLVKDYFPEPVTVSWNSGALTSGVHTFPAVLQSSGLYSLSSVVTVPSSNFGTQTYTCNVDHKPSNTKVDKTVGGGGSAAAVPRDLEVVAATPTSLLISWDAPHHGVAYYRITYGETGGNSPVQEFTVPGSKSTATISGLKPGVDYTINVYAVLAYPRGYPLSKPISINYRTDYKDDDDKGSSHHHHHH
chain 2: DIQMTQSPSSLSASVGDRVTITCRASQSINNYLNWYQQKPGKAPTLLIYAASSLQSGVPSRFSGSRSGTDFTLTISSLQPEDFAAYFCQQTYSNPTFGQGTKVEVKGGGGSGGGGSQVQLVESGGGVVQPGRSLRLSCAASGFTFSSYGMHWVRQAPGKGLEWVAVISYPGNTKYYADSVKGRFTISRDNSKNTLYLQMNSLRAEDTAVYFCARDQKEWRLIFDYWGQGTLVTVSSRTVAAPSVFIFPPSDEQLKSGTASVVCLLNNFYPREAKVQWKVDNALQSGNSQESVTEQDSKDSTYSLSSTLTLSKADYEKHKVYACEVTHQGLSSPVTKSFNRGEC
B4: H69071.4 (bispecific antibody)
chain 1: QVQLQESGPGLVKPSQTLSLTCTVSGGSINNNNYYWTWIRQHPGKGLEWIGYIYYSGSTFYNPSLKSRVTISVDTSKTQFSLKLSSVTAADTAVYYCAREDTMTGLDVWGQGTLVTVSSGGGGSGGGGSDIQMTQSPSSVSASVGDRVTITCRASQGISSWLAWYQQKPGKAPKLLIYAASSLQSGVPSRFSGSGSGAAFTLTISSLQPEDFATYFCQQANSFPLTFAGGTKVDIKRASTKGPSVFPLAPCSRSTSESTAALGCLVKDYFPEPVTVSWNSGALTSGVHTFPAVLQSSGLYSLSSVVTVPSSNFGTQTYTCNVDHKPSNTKVDKTVGGGGSAAAVPRDLEVVAATPTSLLISWDAPHHGVAYYRITYGETGGNSPVQEFTVPGSKSTATISGLKPGVDYTINVYAVLAYPRGYPLSKPISINYRTDYKDDDDKGSSHHHHHH
chain 2: QVQLVESGGGVVQPGRSLRLSCAASGFTFSSYGMHWVRQAPGKGLEWVAVISYPGNTKYYADSVKGRFTISRDNSKNTLYLQMNSLRAEDTAVYFCARDQKEWRLIFDYWGQGTLVTVSSGGGGSGGGGSDIQMTQSPSSLSASVGDRVTITCRASQSINNYLNWYQQKPGKAPTLLIYAASSLQSGVPSRFSGSRSGTDFTLTISSLQPEDFAAYFCQQTYSNPTFGQGTKVEVKRTVAAPSVFIFPPSDEQLKSGTASVVCLLNNFYPREAKVQWKVDNALQSGNSQESVTEQDSKDSTYSLSSTLTLSKADYEKHKVYACEVTHQGLSSPVTKSFNRGEC
notes: also called H69071.2
B5: P69058.3 (bispecific antibody)
chain 1: QVQLQESGPGLVKPSQTLSLTCTVSGGSINNNNYYWTWIRQHPGKGLEWIGYIYYSGSTFYNPSLKSRVTISVDTSKTQFSLKLSSVTAADTAVYYCAREDTMTGLDVWGQGTLVTVSSGGGGSGGGGSSSYELTQPPSVSVSPGQTARITCSGDALPKKYAYWYQQKSGQAPVLVIYEATKRPSGIPERFSGSSSGTMATLTLSGAQVEDEADYYCYSTDSTNYHWVFGGGTKLTVLGASTKGPSVFPLAPCSRSTSESTAALGCLVKDYFPEPVTVSWNSGALTSGVHTFPAVLQSSGLYSLSSVVTVPSSNFGTQTYTCNVDHKPSNTKVDKTVGGGGSAAAVPRDLEVVAATPTSLLISWDAPHHGVAYYRITYGETGGNSPVQEFTVPGSKSTATISGLKPGVDYTINVYAVLAYPRGYPLSKPISINYRTDYKDDDDKGSSHHHHHH
chain 2: EVQLVESGGGLVKPGVSLRLSCAASGFTFSRYGMNWVRQAPGKGLEWVSSISSSGTYIKYADSVKGRFTISRDNAKNSLNLQMNSLRAEDTAVYYCARDRDRYPLDYWGQGTLVTVSSGGGGSGGGGSDIQMTQSPSSLSASVGDRVTITCRASQSINNYLNWYQQKPGKAPTLLIYAASSLQSGVPSRFSGSRSGTDFTLTISSLQPEDFAAYFCQQTYSNPTFGQGTKVEVKRTVAAPSVFIFPPSDEQLKSGTASVVCLLNNFYPREAKVQWKVDNALQSGNSQESVTEQDSKDSTYSLSSTLTLSKADYEKHKVYACEVTHQGLSSPVTKSFNRGEC
B6: P57216.9 (bispecific antibody)
chain 1: QVQLQESGPGLVKPSQTLSLTCTVSGGSINNNNYYWTWIRQHPGKGLEWIGYIYYSGSTFYNPSLKSRVTISVDTSKTQFSLKLSSVTAADTAVYYCAREDTMTGLDVWGQGTLVTVSSASTKGPEVQLVESGGGLVKPGVSLRLSCAASGFTFSRYSMNWVRQAPGKGLEWVSSISSSGTYIKYADSVKGRFTISRDNAKNSLNLQMNSLRAEDTAVYYCARDRDRYPLDYWGQGTLVTVSSASTKGPSVFPLAPCSRSTSESTAALGCLVKDYFPEPVTVSWNSGALTSGVHTFPAVLQSSGLYSLSSVVTVPSSNFGTQTYTCNVDHKPSNTKVDKTVGGGGSAAAVPRDLEVVAATPTSLLISWDAPHHGVAYYRITYGETGGNSPVQEFTVPGSKSTATISGLKPGVDYTINVYAVLAYPRGYPLSKPISINYRTDYKDDDDKGSSHHHHHH
chain 2: DIQMTQSPSSLSASVGDRVTITCRASQSINNYLNWYQQKPGKAPTLLIYAASSLQSGVPSRFSGSRSGTDFTLTISSLQPEDFAAYFCQQTYSNPTFGQGTKVEVKRTVAAPSSYELTQPPSVSVSPGQTARITCSGDALPKKYAYWYQQKSGQAPVLVIYEATKRPSGIPERFSGSSSGTMATLTLSGAQVEDEADYYCYSTDSTNYHWVFGGGTKLTVLGQPKAAPSVTLFPPSSEELQANKATLVCLISDFYPGAVTVAWKADSSPVKAGVETTTPSKQSNNKYAASSYLSLTPEQWKSHRSYSCQVTHEGSTVEKTVAPTECS

T2 sequence (P07766 22-207 limits assumed): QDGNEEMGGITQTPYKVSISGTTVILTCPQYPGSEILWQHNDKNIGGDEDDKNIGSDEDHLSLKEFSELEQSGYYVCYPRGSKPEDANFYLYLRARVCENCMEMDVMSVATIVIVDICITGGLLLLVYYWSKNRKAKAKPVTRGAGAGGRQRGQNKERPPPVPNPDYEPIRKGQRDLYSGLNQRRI

One assay has as its target T1, cynomolgus monkey CD3 (CD3 epsilon …). Nature of the assay: cell-based or functional assay.
Turning to B1, the “Cyno TDCC EC50 (pM), Ovcar-8 cells with cynomolgus monkey T cells” value is 8.1 pM and the “Cyno TDCC Max killing (%), Ovcar-8 cells with cynomolgus monkey T cells” value stood at 86%.
Take B2: the “Cyno TDCC EC50 (pM), Ovcar-8 cells with cynomolgus monkey T cells” value turned out to be 3 pM and the “Cyno TDCC Max killing (%), Ovcar-8 cells with cynomolgus monkey T cells” value worked out at 88%.
In the same order, the values of B3 are 18.8 pM and 91%.
The like results for B4 were, in that order, 3.2 pM and 88%.

The next assay has as its target T2, human CD3 (CD3 epsilon chain) on human T cells (human, UniProt P07766 22-207).
T2 construct: The assay used isolated human T cells, which carry CD3 as part of the TCR-CD3 complex; also called CD3ε
Put plainly: FACS on isolated human T cells, FITC anti-human light chain secondary antibody. The method, then:
(§1) The heterodimeric bispecific antibodies described in Example 1 were produced in HEK 293 cells and were assayed by fluorescence activated cell sorting (FACS) for binding to T cells, which express CD3, and to a human ovarian cancer cell line, Ovcar-8, which expresses mesothelin. Briefly, the heterodimeric bispecific antibodies were incubated with about 50,000 Ovcar-8 cells or isolated human or cynomolgus monkey T cells at 4° C. for one hour. The cells were then washed and stained with a fluorescein isothiocyanate (FITC)-conjugated anti-human light chain secondary antibody and analyzed by flow cytometry. The relative binding was represented by the geometric mean of fluorescence intensity.
For B5, the “FACS binding (geometric mean)” value was 290.
Same read-out and setting: in the case of B6 it was 103.

The next assay deals with T2, human CD3 (CD3 epsilon chain) on human …. Described as above. This is another data set of the same source. The method, then: as §1
(§2) Another set of constructs was made by methods similar to those used above using the same pair of anti-MSLN VH and VL regions as used in most constructs described above and a different pair of anti-CD3 VH and VL regions than used in most of the constructs described above. […] These constructs were tested using the assays described above, as well as the cynomolgus monkey T cell-dependent cell cytolysis (called “cyno TDCC”) assay described below.
As for B1, the “FACS binding (geometric mean)” value was determined as 66.
The same measure, in the same setting: for B2 the value was 9; for B3, 11.
As for B4, the “FACS binding (geometric mean)” value worked out at 16.

For a further assay, the target named is T1, cynomolgus monkey CD3 (CD3 epsilon …). Put plainly: FACS on isolated cynomolgus monkey T cells, FITC anti-human light chain secondary antibody. As to the method:
as §1, §2
In the case of B1, the “FACS binding (geometric mean)” value was 276.
On the same count and under the same terms, in the case of B2 it was 127.
Same read-out and setting: in the case of B3 it was 110; in that of B4, 121.
